The source of these data is patent US20050148516.

The subject of the data set is heparan sulfate proteoglycan (HSPG) on HUVEC.

With GnT-VΔ73, the “amount of FGF-2 released from HSPG on HUVEC (FGF-2 ELISA of the supernatant, 4 °C)” value is “GnT-VΔ73 and KRKRKK peptide released FGF-2”. With GnT-VΔ188, the “amount of FGF-2 released from HSPG on HUVEC (FGF-2 ELISA of the supernatant, 4 °C)” value was “Like GnT-VΔ73, also GnT-VΔ188 and GnT-VΔ233 released FGF-2”.
